Measured values taken from patent US20230295335A1 (published 2023).

T1: recombinant human EpCAM (R&D systems, cat no 9277-EP) (human, UniProt P16422 24-265)
T1 construct: also called human EpCAM extracellular domain
T1 sequence: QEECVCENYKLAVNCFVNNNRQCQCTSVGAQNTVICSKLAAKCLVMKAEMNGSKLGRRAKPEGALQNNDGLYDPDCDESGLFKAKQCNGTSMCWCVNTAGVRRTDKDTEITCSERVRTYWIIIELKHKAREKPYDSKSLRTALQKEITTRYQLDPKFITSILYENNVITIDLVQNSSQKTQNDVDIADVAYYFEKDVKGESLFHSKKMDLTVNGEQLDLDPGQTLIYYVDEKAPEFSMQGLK

T2: full length mouse EpCAM on CHO-S cells (mouse, UniProt Q99JW5 24-315)
T2 sequence: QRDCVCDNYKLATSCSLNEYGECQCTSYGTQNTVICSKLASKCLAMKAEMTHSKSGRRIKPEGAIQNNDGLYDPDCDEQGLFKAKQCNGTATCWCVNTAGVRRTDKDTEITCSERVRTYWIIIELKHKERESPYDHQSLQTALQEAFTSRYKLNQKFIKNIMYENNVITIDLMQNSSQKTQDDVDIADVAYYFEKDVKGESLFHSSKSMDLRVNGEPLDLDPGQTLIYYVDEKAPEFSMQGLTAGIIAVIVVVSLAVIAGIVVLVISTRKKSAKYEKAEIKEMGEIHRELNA

T3: full length cynomolgus monkey EpCAM on CHO-S cells (cynomolgus monkey, UniProt Q1WER1 24-314 (rhesus entry))
T3 sequence: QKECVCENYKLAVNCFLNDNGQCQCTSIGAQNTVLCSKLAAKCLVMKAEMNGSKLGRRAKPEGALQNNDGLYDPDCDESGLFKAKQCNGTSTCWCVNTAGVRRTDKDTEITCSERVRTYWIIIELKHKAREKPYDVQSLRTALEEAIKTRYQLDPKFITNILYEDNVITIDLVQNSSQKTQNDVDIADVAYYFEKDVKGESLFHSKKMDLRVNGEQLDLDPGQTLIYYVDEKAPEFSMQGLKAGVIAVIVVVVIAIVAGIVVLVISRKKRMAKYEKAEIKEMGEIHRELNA


Assays:
[1] = target: T1, recombinant human EpCAM (R&D systems, …); assay: BLI classical sandwich cross-block; human EpCAM held by immobilized first antibody IgG1-EpCAM-A37-FEAR (competitor); second antibody 10 µg/mL in solution
Method: (§1) The theoretical molecular mass of human EpCAM based on the amino acid sequence (28 kDa) was used for calculations. The association (300 s) of a second EpCAM antibody (10 μg/mL in Sample Diluent) was determined. Data were acquired using Data Acquisition Software v12.0.1.8 (FortéBio) and analyzed with Data Analysis HT Software v12.0.1.55 (FortéBio). Data traces were corrected by subtraction of a reference curve (Sample Diluent instead of second antibody) in order to correct for the dissociation of human EpCAM from the immobilized first antibody. The Y-axis was aligned to the start of the association step and Savitzky-Golay filtering was applied. The corrected association responses of the second antibodies were plotted in a matrix format. […] By contrast, responses between −0.1 and 0.1 nm were considered to be blocking antibody pairs.

[2] = target: T1, recombinant human EpCAM (R&D systems, …); assay: BLI classical sandwich cross-block; human EpCAM held by immobilized first antibody IgG1-EpCAM-C52-FEAR (competitor); second antibody 10 µg/mL in solution
Method: as §1

[3] = target: T1, recombinant human EpCAM (R&D systems, …); assay: BLI classical sandwich cross-block; human EpCAM held by immobilized first antibody IgG1-EpCAM-323-A3-FEAR (competitor); second antibody 10 µg/mL in solution
Method: as §1

[4] = target: T1, recombinant human EpCAM (R&D systems, …); assay: BLI classical sandwich cross-block; human EpCAM held by immobilized first antibody IgG1-EpCAM-UBS-54-FEAR (competitor); second antibody 10 µg/mL in solution
Method: as §1

[5] = target: T2, full length mouse EpCAM on CHO-S cells; assay: flow cytometry on CHO-S cells transfected with mouse EpCAM
Method: (§2) Binding of EpCAM antibodies to CHO-S cells transiently transfected with full length human, cynomolgus monkey or mouse EpCAM was analyzed by flow cytometry. […] Cells were washed twice in FACS buffer, re-suspended in 20 μL FACS buffer supplemented with TO-PRO™-3 Iodide (diluted 1:20000; Invitrogen, cat. no. T3605) and analyzed on an iQue screener (Intellicyt Corporation, USA). Binding curves were analyzed by non-linear regression (sigmoidal dose-response with variable slope) using GraphPad Prism V8.4.1 software (GraphPad Software, San Diego, CA, USA).

[6] = target: T3, full length cynomolgus monkey EpCAM on …; assay: flow cytometry on CHO-S cells transfected with cynomolgus monkey EpCAM
Method: as §2

[7] = target: human 4-1BB (CD137) on cells (human, UniProt Q07011 24-255); assay: cell-based or functional assay
FcγRIa = target: T4, FcγRIa (human, UniProt P12314 16-288, limits assumed, biotinylated); assay: SPR (Biacore 8K); His-tagged FcγR captured on anti-His chip
T4 construct: Bought His-tagged protein captured on anti-His chip; also called CD64 Protein, Human, Recombinant (His Tag), Biotinylated
Method: (§3) At the end of each cycle, the surface was regenerated using 10 mM Glycine-HCl pH 1.5 (Cytiva, cat. no. BR100354).

FcγRIIIa-F158 = target: T5, FcγRIIIa-F158 (human, UniProt P08637 17-208); assay: as above
T5 construct: extracellular domain; Bought His-tagged protein
Method: as §3

FcγRIIIa-V158 = target: T6, FcγRIIIa-V158 (human, UniProt P08637 17-208); assay: as above
T6 construct: Bought His-tagged protein
T6 sequence (P08637 17-208 F176V limits assumed): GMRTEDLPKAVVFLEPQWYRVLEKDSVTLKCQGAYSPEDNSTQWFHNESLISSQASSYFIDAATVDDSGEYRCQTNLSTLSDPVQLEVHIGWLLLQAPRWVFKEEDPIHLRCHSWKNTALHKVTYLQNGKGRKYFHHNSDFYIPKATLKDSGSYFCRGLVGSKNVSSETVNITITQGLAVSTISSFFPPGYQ
Method: as §3

human 4-1BB (CD137) on cells, sequence (Q07011 24-255): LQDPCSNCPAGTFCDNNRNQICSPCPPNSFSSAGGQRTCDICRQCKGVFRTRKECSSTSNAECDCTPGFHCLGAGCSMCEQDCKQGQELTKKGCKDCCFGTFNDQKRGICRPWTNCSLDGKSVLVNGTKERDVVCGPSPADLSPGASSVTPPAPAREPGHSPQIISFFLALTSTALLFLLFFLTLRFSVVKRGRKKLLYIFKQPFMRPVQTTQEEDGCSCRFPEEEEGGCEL
T5 sequence (P08637 17-208): as the sequence (P08637 17-208 F176V limits assumed) above, with V160F counted along it
T4 sequence (P12314 16-288 limits assumed): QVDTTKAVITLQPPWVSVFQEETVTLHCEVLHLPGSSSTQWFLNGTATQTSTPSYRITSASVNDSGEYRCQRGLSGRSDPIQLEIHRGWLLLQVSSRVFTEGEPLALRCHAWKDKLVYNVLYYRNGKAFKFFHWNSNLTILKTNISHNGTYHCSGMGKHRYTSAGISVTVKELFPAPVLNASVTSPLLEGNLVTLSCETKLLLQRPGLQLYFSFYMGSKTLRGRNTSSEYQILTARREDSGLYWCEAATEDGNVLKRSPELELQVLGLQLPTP

| Binder | corrected association response of the antibody in solution [1] [nm] | corrected association response of the antibody in solution [2] [nm] | corrected association response of the antibody in solution [3] [nm] | corrected association response of the antibody in solution [4] [nm] | binding result [5] | binding result [6] | also measured |
| --- | --- | --- | --- | --- | --- | --- | --- |
| IgG1-EpCAM-323-A3-FEAR (antibody, also called IgG1-323-A3-FEAR) heavy: QIQLVQSGPELKKPGETVKISCKASGYTFTNYGMNWVRQASGEGLKWMGWINTYTGEPTYGEDFKGRFAFSLETSASTAYLQINNLKNEDTATYFCARFGNYVDYWGQGTTLTVSSASTKGPSVFPLAPSSKSTSGGTAALGCLVKDYFPEPVTVSWNSGALTSGVHTFPAVLQSSGLYSLSSVVTVPSSSLGTQTYICNVNHKPSNTKVDKRVEPKSCDKTHTCPPCPAPEFEGGPSVFLFPPKPKDTLMISRTPEVTCVVVAVSHEDPEVKFNWYVDGVEVHNAKTKPREEQYNSTYRVVSVLTVLHQDWLNGKEYKCKVSNKALPAPIEKTISKAKGQPREPQVYTLPPSREEMTKNQVSLTCLVKGFYPSDIAVEWESNGQPENNYKTTPPVLDSDGSFFLYSRLTVDKSRWQQGNVFSCSVMHEALHNHYTQKSLSLSPG light: DIVMTQAAFSNPVTLGTSASISCRSSKNLLHSNGITYLYWYLQKPGQSPHLLIYQMSNLASGVPDRFSSSGSGTDFTLRISRVEAEDVGVYYCAQNLEIPRTFGGGTKLEIKRTVAAPSVFIFPPSDEQLKSGTASVVCLLNNFYPREAKVQWKVDNALQSGNSQESVTEQDSKDSTYSLSSTLTLSKADYEKHKVYACEVTHQGLSSPVTKSFNRGEC | -0.02 | -0.02 | 0 | -0.01 |  |  |  |
| bsIgG1-EpCAM-A37-FERL/CD137-009-HC7LC2-FEAR (bispecific antibody) heavy 1: not shown light 1: EIELTQSPGTLSLSPGERATLSCRASQTISNNYLAWYQQKRGQAPRLLIYAASSRATGIPDRFSGTGSGTDFTLTISRLEPEDFAVYYCAQGELYPRQFGGGTKLEIKRTVAAPSVFIFPPSDEQLKSGTASVVCLLNNFYPREAKVQWKVDNALQSGNSQESVTEQDSKDSTYSLSSTLTLSKADYEKHKVYACEVTHQGLSSPVTKSFNRGEC heavy 2: EVQLVESGGGLVQPGRSLRLSCTASGFSLNDYWMSWVRQAPGKGLEWVGYIDVGGSLYYAASVKGRFTISRDDSKSIAYLQMNSLKTEDTAVYYCARGGLTYGFDLWGQGTLVTVSSASTKGPSVFPLAPSSKSTSGGTAALGCLVKDYFPEPVTVSWNSGALTSGVHTFPAVLQSSGLYSLSSVVTVPSSSLGTQTYICNVNHKPSNTKVDKRVEPKSCDKTHTCPPCPAPEFEGGPSVFLFPPKPKDTLMISRTPEVTCVVVAVSHEDPEVKFNWYVDGVEVHNAKTKPREEQYNSTYRVVSVLTVLHQDWLNGKEYKCKVSNKALPAPIEKTISKAKGQPREPQVYTLPPSREEMTKNQVSLTCLVKGFYPSDIAVEWESNGQPENNYKTTPPVLDSDGSFFLYSRLTVDKSRWQQGNVFSCSVMHEALHNHYTQKSLSLSPG light 2: DIVMTQSPSSLSASVGDRVTITCQASEDISSYLAWYQQKPGKAPKRLIYGASDLASGVPSRFSASGSGTDYTFTISSLQPEDIATYYCHYYATISGLGVAFGGGTKVEIKRTVAAPSVFIFPPSDEQLKSGTASVVCLLNNFYPREAKVQWKVDNALQSGNSQESVTEQDSKDSTYSLSSTLTLSKADYEKHKVYACEVTHQGLSSPVTKSFNRGEC |  |  |  |  |  |  | EC50 CD107a GMFI (donor 1) [7]: 0.0503 µg/mL; EC50 CD107a GMFI (donor 2) [7]: 0.03 µg/mL; EC50 CD107a GMFI (donor 3) [7]: 0.0217 µg/mL; EC50 CD107a GMFI (donor 4) [7]: 0.012 µg/mL; EC50 CD107a GMFI (donor 6) [7]: 0.021 µg/mL; EC50 GzmB GMFI (donor 1) [7]: 0.0179 µg/mL; EC50 GzmB GMFI (donor 2) [7]: 0.0176 µg/mL; EC50 GzmB GMFI (donor 3) [7]: 0.0204 µg/mL; EC50 GzmB GMFI (donor 4) [7]: 0.0121 µg/mL; EC50 GzmB GMFI (donor 5) [7]: 0.0201 µg/mL; EC50 GzmB GMFI (donor 6) [7]: 0.0224 µg/mL; binding result (FcγRIa): no binding (tested: 3,000 nM (highest concentration tested)); binding result (FcγRIIIa-F158): no binding (tested: 10,000 nM (highest concentration tested)); binding result (FcγRIIIa-V158): no binding (tested: 10,000 nM (highest concentration tested)) |
| bsIgG1-CD137-009-HC7LC2-FEAL/EpCAM-A37-FEAR (bispecific antibody) heavy 1: EVQLVESGGGLVQPGRSLRLSCTASGFSLNDYWMSWVRQAPGKGLEWVGYIDVGGSLYYAASVKGRFTISRDDSKSIAYLQMNSLKTEDTAVYYCARGGLTYGFDLWGQGTLVTVSSASTKGPSVFPLAPSSKSTSGGTAALGCLVKDYFPEPVTVSWNSGALTSGVHTFPAVLQSSGLYSLSSVVTVPSSSLGTQTYICNVNHKPSNTKVDKRVEPKSCDKTHTCPPCPAPEFEGGPSVFLFPPKPKDTLMISRTPEVTCVVVAVSHEDPEVKFNWYVDGVEVHNAKTKPREEQYNSTYRVVSVLTVLHQDWLNGKEYKCKVSNKALPAPIEKTISKAKGQPREPQVYTLPPSREEMTKNQVSLTCLVKGFYPSDIAVEWESNGQPENNYKTTPPVLDSDGSFLLYSKLTVDKSRWQQGNVFSCSVMHEALHNHYTQKSLSLSPG light 1: DIVMTQSPSSLSASVGDRVTITCQASEDISSYLAWYQQKPGKAPKRLIYGASDLASGVPSRFSASGSGTDYTFTISSLQPEDIATYYCHYYATISGLGVAFGGGTKVEIKRTVAAPSVFIFPPSDEQLKSGTASVVCLLNNFYPREAKVQWKVDNALQSGNSQESVTEQDSKDSTYSLSSTLTLSKADYEKHKVYACEVTHQGLSSPVTKSFNRGEC heavy 2: not shown light 2: EIELTQSPGTLSLSPGERATLSCRASQTISNNYLAWYQQKRGQAPRLLIYAASSRATGIPDRFSGTGSGTDFTLTISRLEPEDFAVYYCAQGELYPRQFGGGTKLEIKRTVAAPSVFIFPPSDEQLKSGTASVVCLLNNFYPREAKVQWKVDNALQSGNSQESVTEQDSKDSTYSLSSTLTLSKADYEKHKVYACEVTHQGLSSPVTKSFNRGEC |  |  |  |  |  |  | binding result (FcγRIa): no binding (tested: 3,000 nM (highest concentration tested)); binding result (FcγRIIIa-F158): no binding (tested: 10,000 nM (highest concentration tested)); binding result (FcγRIIIa-V158): no binding (tested: 10,000 nM (highest concentration tested)) |
| IgG1-EpCAM-A37-FEAR (antibody) heavy: not shown light: EIELTQSPGTLSLSPGERATLSCRASQTISNNYLAWYQQKRGQAPRLLIYAASSRATGIPDRFSGTGSGTDFTLTISRLEPEDFAVYYCAQGELYPRQFGGGTKLEIKRTVAAPSVFIFPPSDEQLKSGTASVVCLLNNFYPREAKVQWKVDNALQSGNSQESVTEQDSKDSTYSLSSTLTLSKADYEKHKVYACEVTHQGLSSPVTKSFNRGEC | -0.04 | 0 | -0.01 | 0 | binds | binds |  |

More lines, main results first:

| corrected association response of the antibody in solution [1] [nm] | corrected association response of the antibody in solution [2] [nm] | corrected association response of the antibody in solution [3] [nm] | corrected association response of the antibody in solution [4] [nm] | binding result [5] | binding result [6] | Binder | also measured |
| --- | --- | --- | --- | --- | --- | --- | --- |
|  |  |  |  | binds | binds | IgG1-EpCAM-323-A3 (antibody, Unmodified IgG1 constant region) heavy: not shown light: DIVMTQAAFSNPVTLGTSASISCRSSKNLLHSNGITYLYWYLQKPGQSPHLLIYQMSNLASGVPDRFSSSGSGTDFTLRISRVEAEDVGVYYCAQNLEIPRTFGGGTKLEIKRTVAAPSVFIFPPSDEQLKSGTASVVCLLNNFYPREAKVQWKVDNALQSGNSQESVTEQDSKDSTYSLSSTLTLSKADYEKHKVYACEVTHQGLSSPVTKSFNRGEC |  |
| -0.03 | -0.02 | -0.01 | 0 | binds | binds | IgG1-EpCAM-C52-FEAR (antibody, V domains shown, The running text prints C52 as 052; also called IgG1-EpCAM-052-FEAR) VH: QVQLVQSGAEVKKPGASVKVSCKASGGTFSSYAISWVRQAPGQGLEWMGGIVPIFGTANYAQKFQGRVTITADESTSTAYMELSSLRSEDTAVYYCARDPFLHYWGQGTLVTVSS VL: EIELTQSPGTLSLSPGERATLSCRASQSVSSSYLAWYQQKPGQAPRLLIYGASSRATGIPDRFSGSGSGTDFTLTISRLEPEDFAVYYCAQGELYPRQFGGGTKLDIKR |  |
| -0.03 | -0.01 | 0 | -0.02 | binds | binds | IgG1-EpCAM-UBS-54-FEAR (antibody, V domains shown) VH: QVQLVQSGAEVKKPGSSVRVSCKASGGTFSSYAISWVRQAPGQGLEWMGGIIPIFGTANYAQKFQGRVTITADESTSTAYMELSSLRSEDTAVYYCARDPFLHYWGQGTLVTVSS VL: not shown |  |
